Test results reported in paper PMC3239189 (Nucleic Acids Research, 2011).

T1: LHK-Exo (Laribacter hongkongensis HLHK9, UniProt C1D7P6 1-203)
T1 sequence: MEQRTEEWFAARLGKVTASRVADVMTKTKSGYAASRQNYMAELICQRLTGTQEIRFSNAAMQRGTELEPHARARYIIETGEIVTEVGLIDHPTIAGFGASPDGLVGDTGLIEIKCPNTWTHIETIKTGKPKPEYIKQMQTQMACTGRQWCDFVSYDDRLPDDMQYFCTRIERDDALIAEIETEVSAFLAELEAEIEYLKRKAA

B1: LHK-Exo (alkaline exonuclease from Laribacter hongkongensis HLHK9, LHK_01497) (enzyme, UniProt C1D7P6 1-203, looked up)
chain: T1 sequence

How the values were obtained:
[1] = biological target: T1, LHK-Exo; test: X-ray crystallography
[2] = biological target: the molecule itself; test: AUC

Binder	binding result [1]	stoichiometry N [2]
TTTTT (ssDNA, 5'-phosphate) [5'-PO4-(dT)5]	binds	–
B1	–	3
